Columns and labels:
recombinant ROR1 protein = molecular target: T1, recombinant ROR1 protein (UniProt Q01973 30-403, limits assumed); experiment: ELISA, OD450 (FIG. 6C)
T1 construct: also called his-tagged ROR1; not shown: his tag

[1] = molecular target: T2, ROR1 expressed on cells (A549, MB231, JeKo-1, MEC-ROR1) (UniProt Q01973 30-937); experiment: flow cytometry on A549 cells, 1 µg/ml, anti-HA APC
T2 construct: whole, on cells; also called ROR1-expressing cell lines; ROR1-positive cells

[2] = molecular target: T2, ROR1 expressed on cells (A549, MB231, …); experiment: flow cytometry on MB231 cells, 1 µg/ml, anti-HA APC
[3] = molecular target: T2, ROR1 expressed on cells (A549, MB231, …); experiment: flow cytometry on JeKo-1 cells, 1 µg/ml, anti-HA APC
[4] = molecular target: T2, ROR1 expressed on cells (A549, MB231, …); experiment: cell-based or functional assay

T2 sequence (Q01973 30-937): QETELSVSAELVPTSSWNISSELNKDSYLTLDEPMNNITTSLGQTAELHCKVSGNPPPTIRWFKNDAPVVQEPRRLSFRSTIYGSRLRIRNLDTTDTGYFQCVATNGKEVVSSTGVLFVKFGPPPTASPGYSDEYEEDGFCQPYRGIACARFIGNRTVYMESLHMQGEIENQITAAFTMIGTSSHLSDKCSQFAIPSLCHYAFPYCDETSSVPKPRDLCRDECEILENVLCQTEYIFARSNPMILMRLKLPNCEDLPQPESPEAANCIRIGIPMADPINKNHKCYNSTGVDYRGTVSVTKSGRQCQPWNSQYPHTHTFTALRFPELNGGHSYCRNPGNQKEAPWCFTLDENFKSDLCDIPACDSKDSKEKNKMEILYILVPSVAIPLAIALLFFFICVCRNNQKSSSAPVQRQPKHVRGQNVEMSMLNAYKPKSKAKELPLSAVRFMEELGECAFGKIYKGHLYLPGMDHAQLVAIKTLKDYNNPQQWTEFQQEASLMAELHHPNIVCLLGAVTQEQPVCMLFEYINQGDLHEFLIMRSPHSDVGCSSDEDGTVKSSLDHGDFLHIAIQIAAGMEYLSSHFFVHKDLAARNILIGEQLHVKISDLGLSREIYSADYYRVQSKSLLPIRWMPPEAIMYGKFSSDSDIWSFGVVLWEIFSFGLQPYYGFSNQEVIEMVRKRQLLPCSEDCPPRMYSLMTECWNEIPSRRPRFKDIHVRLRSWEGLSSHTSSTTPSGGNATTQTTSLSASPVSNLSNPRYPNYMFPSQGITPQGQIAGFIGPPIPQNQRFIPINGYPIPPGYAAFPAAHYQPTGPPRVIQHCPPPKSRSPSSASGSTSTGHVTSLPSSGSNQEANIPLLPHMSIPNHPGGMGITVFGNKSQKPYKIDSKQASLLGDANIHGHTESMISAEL
T1 sequence (Q01973 30-403 limits assumed): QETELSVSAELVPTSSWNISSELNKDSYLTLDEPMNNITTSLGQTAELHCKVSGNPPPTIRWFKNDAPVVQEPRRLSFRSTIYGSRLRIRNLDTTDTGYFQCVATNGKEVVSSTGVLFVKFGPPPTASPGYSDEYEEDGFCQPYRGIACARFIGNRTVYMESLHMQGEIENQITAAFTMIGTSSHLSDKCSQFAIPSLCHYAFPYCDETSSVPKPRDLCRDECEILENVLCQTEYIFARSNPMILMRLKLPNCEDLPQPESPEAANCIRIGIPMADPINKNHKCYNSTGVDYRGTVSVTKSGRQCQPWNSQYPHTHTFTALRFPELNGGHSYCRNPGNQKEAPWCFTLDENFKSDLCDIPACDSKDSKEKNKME

B1: VHH2 (VHH)
VHH: QVQLVESGGGLVQAGGSLRLSCAASGSIFSINAMAWYRHRPGMQRERVAAISSGGTTSYADSVKGRFTISRDNARDTLYLQMNSLKPEDTAMYYCAACPGDYTSTICNSDGMDYWGKGTLVTVSS
notes: Non-specific control VHH; also called non-specific VHH; negative control VHH2
B1: no binding (recombinant ROR1 protein).

B2: 5-95 (VHH)
VHH: QVQLQESGGGLVQPGGSLRLSCAASGFTFSTYSMTWVRQAPGKGLEWVSDINSGGSVAYYTDSVKGRFTASRDNAKNTLYLQMNSLKPEDTAVYYCYEGGYHGGSPRGHGTQVTVSS
notes: not shown: one his tag and one HA tag at the C-terminus
For B2, the “proportion of binding cells” value [1] was 11.8%, the “proportion of binding cells” value [2] was 53.3% and the “proportion of binding cells” value [3] was 1.18%.

B3: VHH1 (VHH)
VHH: QVQLVESGGGLVQPGGSLRLSCAASGFTFSDTWMNWVRQAPGKGLYWISAINPDGGNTAYADSVKGRFTISRDNAKNMVYLQMDNLRPEDTAMYYCAKGWVRLPDPDLVRGQGTQVTVSS
notes: Non-specific control VHH; also called non-specific VHH; negative control VHH1
B3: no binding (recombinant ROR1 protein).

B4: 5-26 (VHH)
VHH: QVQLQESGGGLVQPGGSLRLSCAASGFTLDLYAIGWFRQAPGKERERVSCISSGGSTNYAESVKGRFTISRDNGKNTVYLQMNSLKPEDTAVYYCVRSVPSCGSYYFPPRNMNYWGKGTQVTVSS
notes: Alpaca VHH from the phage library; not shown: one his tag and one HA tag at the C-terminus
B4 was tested, and the “proportion of binding cells” value [1] was 97%, the “proportion of binding cells” value [2] was 96.8% and the “proportion of binding cells” value [3] was 99.7%.

B5: 5-09 (VHH)
VHH: QVQLQESGGGLVQPGGSLRLSCAASGFTLDDYAIGWFRQAPGKERERISCISSGGNTNYADSVKGRFTLSRDNAKNTVYLQMYSLKPEDTAVYYCTASIPSCASYYFPPRNMDYWGKGTQVTVSS
notes: also called 5-9; not shown: one his tag and one HA tag at the C-terminus
For B5, the “proportion of binding cells” value [1] was 18.5%, the “proportion of binding cells” value [2] was 61.7% and the “proportion of binding cells” value [3] was 1.9%.

B6: hu5-26 ROR1 VHH CAR (other)
chain: QVQLVESGGGLVQPGGSLRLSCAASGFTLDLYAIGWFRQAPGKERGLVSCISSGGSTNYAESVKGRFTISRDNSKNTVYLQMNSLRSEDTAVYYCVRSVPSCGSYYFPPRNMNYWGQGTLVTVSSIEVMYPPPYLDNEKSNGTIIHVKGKHLCPSPLFPGPSKPFWVLVVVGGVLACYSLLVTVAFIIFWVKRGRKKLLYIFKQPFMRPVQTTQEEDGCSCRFPEEEEGGCELRVKFSRSADAPAYKQGQNQLYNELNLGRREEYDVLDKRRGRDPEMGGKPRRKNPQEGLYNELQKDKMAEAYSEIGMKGERRRGKGHDGLYQGLSTATKDTYDALHMQALPPR
B6 was tested, and the “proportion of target cells (surviving, GFP-labeled) after 24 hours, effector-to-target ratio 1:1, MB231” value [4] was 2.96% and the “proportion of target cells (surviving, GFP-labeled) after 24 hours, effector-to-target ratio 1:1, MEC-ROR1” value [4] was 1.93%.

B7: 4-92 (VHH)
VHH: QVQLQESGGGLVQPGGSLRLSCAASGFAFSSRAMSWVRQAPGKGLEWVSDINYDGAWTYYADSVKGRFTISRDNAKNTLYLQMNSLKPEDTAVYFCTDPWSIDGWGQGTQVTVSS
notes: as for B4
In the case of B7, the “proportion of binding cells” value [1] is reported as 34.6%, the “proportion of binding cells” value [2] is reported as 74.3% and the “proportion of binding cells” value [3] is reported as 2.96%.
